Measured values from US20150037339A1 (Regeneron, published 2015).

T1: Activin A (human, UniProt P08476 311-426)
T1 construct: Homodimer of two βA subunits; bought from R&D Systems (#338-AC); also called inhibin-βA dimer; human Activin A
T1 sequence: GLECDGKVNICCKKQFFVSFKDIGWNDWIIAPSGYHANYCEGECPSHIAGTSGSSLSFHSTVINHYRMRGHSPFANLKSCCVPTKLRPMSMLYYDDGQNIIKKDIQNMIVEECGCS

T2: Activin B (human, UniProt P09529 293-407)
T2 construct: Homodimer of two βB subunits; R&D Systems #659-AB
T2 chain: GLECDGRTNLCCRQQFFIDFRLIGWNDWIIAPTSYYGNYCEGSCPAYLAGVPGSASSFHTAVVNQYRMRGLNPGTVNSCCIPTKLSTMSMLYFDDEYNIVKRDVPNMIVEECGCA

B1: H4H10436P2 (antibody, human IgG4, V domains shown)
VH: QVQLVESGGGVVQPGRSLRLTCVASGFTVSSYGMHWVRQAPGKGLEWVAVMFYDESKKYYADSVKGRFTISRDNSKNTLYLQMNSLRVEDTAVYYCARDEQLDFEYWGQGTLVTVSS
VL: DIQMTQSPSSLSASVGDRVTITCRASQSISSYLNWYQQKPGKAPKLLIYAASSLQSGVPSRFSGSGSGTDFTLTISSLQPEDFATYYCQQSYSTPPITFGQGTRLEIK
B2: H4H10432P2 (antibody, human IgG4, V domains shown)
VH: EVQLVESGGGLVQPGRSLTLSCAVSGFTFDDHAMHWVRQAPGKGLEWVSGISWNSVSIGYADSVKGRFTISRDNAKTSLYLQMNSLRVDDTALYYCVQDLNDILTGYPLFDFWGQGTLVTVSS
VL: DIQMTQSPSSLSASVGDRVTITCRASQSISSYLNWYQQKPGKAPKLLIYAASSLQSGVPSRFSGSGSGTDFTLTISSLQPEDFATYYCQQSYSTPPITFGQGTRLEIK
B3: H4H10429P (antibody, human IgG4, V domains shown)
VH: QVQLVESGGGVVQPGRSLRLSCVASGFTVSSYGIHWVRQAPGKGLEWVSVIWYDGRNKDYADSVKGRFTISRDNSKNTVYLEMKGLRAEDTALYYCARDKTGDFDSWGQGTLVTVSS
VL: DIQMTQSPSSLSASVGDRVTITCRASQNINSFLSWYQQKPGKAPKFLIYDASSIQSGAPSRFSGSGSGTDFTLTISSLQPEDFATYYCQQSYSSPFTFGQGTKLEIK

Experiments:
[1] = biological target: T1, Activin A; experiment: SPR, captured mAb, 25C
How it was run: (§1)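 Reported half-lives follow ln2/(60*kd) in minutes, with KD taken as kd/ka. Both rest on fits to binding data from 240 s of association and 600 s of buffer dissociation.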

[2] = biological target: T2, Activin B; experiment: SPR, captured mAb, 25C
How it was run: as §1

[3] = biological target: T1, Activin A; experiment: SPR, captured mAb, 37C
How it was run: as §1

[4] = biological target: T2, Activin B; experiment: SPR, captured mAb, 37C
How it was run: as §1

[5] = biological target: T1, Activin A; experiment: SPR, captured mAb, 37C; no dissociation observed, kd fixed
Method: (§2) Antibody-antigen association was monitored for 240 seconds while dissociation in buffer was monitored for 600 seconds. Kinetic association and dissociation rate constants were determined by processing and fitting the data using Scrubber software version 2.0c. Binding equilibrium dissociation constants (KD) and dissociative half-lives (t_{1/2}) were then calculated from the kinetic rate constants as: KD (M)=kd/kₐ and t_{1/2} (min)=[ln 2/(60*kd)]. (NB=no binding observed under the conditions used; NT=not tested).

[6] = biological target: T1, Activin A; experiment: Octet cross-competition; binder on anti-hFc tip; 50 nM hActivin A pre-bound with 1 uM H4H10423P (col 4); white box
Method: (§3) No. 8,309,082) and Control 3 (MAB3381, available from R&D Systems, Inc., Minneapolis, Minn.) were also included in the assays. All assays were performed at 25° C. with a microtiter plate shaking rate of 1000 rpm in Octet HBST buffer (0.01 M HEPES pH7.4, 0.15M NaCl, 3 mM EDTA, 0.05% v/v Surfactant P20, 0.1 mg/mL BSA) according to manufacturer's instructions (ForteBio Corp., Menlo Park, Calif.). […] Any remaining anti-hFc binding sites on the tips were blocked by incubating the tips in a 50 ug/mL solution of irrelevant antibody for 5 minutes.

[7] = biological target: T1, Activin A; experiment: Octet cross-competition; binder on anti-hFc tip; 50 nM hActivin A pre-bound with 1 uM H4H10429P (col 6); black box
Method: as §3

[8] = biological target: T1, Activin A; experiment: Octet cross-competition; binder on anti-hFc tip; 50 nM hActivin A pre-bound with 1 uM H4H10430P (col 5); black box
Method: as §3

[9] = biological target: T1, Activin A; experiment: Octet cross-competition; binder on anti-hFc tip; 50 nM hActivin A pre-bound with 1 uM Control 1 (col 10); black box
Method: as §3

[10] = biological target: T1, Activin A; experiment: Octet cross-competition; binder on anti-hFc tip; 50 nM hActivin A pre-bound with 1 uM Control 3 (col 11); black box
Method: as §3

[11] = biological target: T1, Activin A; experiment: Octet cross-competition; binder on anti-hFc tip; 50 nM hActivin A pre-bound with 1 uM H4H10432P2 (col 7); black box
Method: as §3

[12] = biological target: T1, Activin A; experiment: Octet cross-competition; binder on anti-hFc tip; 50 nM hActivin A pre-bound with 1 uM H4H10440P2 (col 9); black box
Method: as §3

[13] = biological target: T1, Activin A; experiment: Octet cross-competition; binder on anti-hFc tip; 50 nM hActivin A pre-bound with 1 uM H4H10442P2 (col 3); white box
Method: as §3

[14] = biological target: T1, Activin A; experiment: Octet cross-competition; binder on anti-hFc tip; 50 nM hActivin A pre-bound with 1 uM H4H10446P2 (col 1); white box
Method: as §3

[15] = biological target: T1, Activin A; experiment: Octet cross-competition; binder on anti-hFc tip; 50 nM hActivin A pre-bound with 1 uM H4H10468P2 (col 2); white box
Method: as §3

[16] = biological target: T1, Activin A; experiment: Octet cross-competition; binder on anti-hFc tip; 50 nM hActivin A mixed with 1 uM Isotype control 12 (-) (col 12); dark grey box
Method: as §3

[17] = biological target: T1, Activin A; experiment: Octet cross-competition; binder on anti-hFc tip; 50 nM hActivin A mixed with 1 uM Isotype control 13 (-) (col 13); dark grey box
Method: as §3

[18] = biological target: T1, Activin A; experiment: SPR, captured mAb, 25C; no dissociation observed, kd fixed
Method: as §2

[19] = biological target: T1, Activin A; experiment: Octet cross-competition; binder on anti-hFc tip; 50 nM hActivin A pre-bound with 1 uM H4H10436P2 (col 8); black box
Method: as §3

Binder	Activin A-20 nM (RU) [1] [RU]	Kd [1] [nM]	kon [1] [M⁻¹ s⁻¹]	t1/2 [1] [min]	50 nM Ag Bound (RU) [2] [RU]	Activin A-20 nM (RU) [3] [RU]	Kd [3] [nM]	kon [3] [M⁻¹ s⁻¹]	t1/2 [3] [min]	50 nM Ag Bound (RU) [4] [RU]	koff [5] [s⁻¹]	binding response [6]	binding response [8]	binding response [9]	binding response [10]	binding response [12]	binding response [13]	binding response [14]	binding response [15]	binding response [16]	also measured
B1	23.2	0.019	8.85e+06	68.7	32.8	29.4	≤ 0.00335	1.49e+07	≥ 231	38.1	≤ 5e-05	1.41	0.28	0.16	-0.04	0.27	1.39	1.22	1.32	0.28	koff [1]: 0.000168 s⁻¹; Kd [2]: 0.0554 nM; koff [2]: 0.000528 s⁻¹; kon [2]: 9.52e+06 M⁻¹ s⁻¹; t1/2 [2]: 21.9 min; Kd [4]: 0.139 nM; koff [4]: 0.00136 s⁻¹; kon [4]: 9.78e+06 M⁻¹ s⁻¹; t1/2 [4]: 8.5 min; binding response [7]: 0.36; binding response [11]: 0.23; binding response [17]: 0.14
B2	20.7	≤ 0.00318	1.57e+07	≥ 231	5.1	25.1	≤ 0.00218	2.3e+07	≥ 231	5.1	≤ 5e-05	1.32	0.28	0.15	-0.05	0.27	1.63	1.36	1.58	0.3	binding result [2]: no binding (tested: 50 nM); koff [18]: ≤ 5e-05 s⁻¹; binding response [7]: 0.32; binding response [19]: 0.29; binding response [17]: 0.11
B3	24.9	0.00817	7.82e+06	181	26.4	31.4	≤ 0.00375	1.33e+07	≥ 231	25.3	≤ 5e-05	1.39	0.65	0.16	-0.01	0.29	1.4	1.24	1.37	0.39	koff [1]: 6.39e-05 s⁻¹; Kd [2]: 3.75 nM; koff [2]: 0.0131 s⁻¹; kon [2]: 3.49e+06 M⁻¹ s⁻¹; t1/2 [2]: 0.9 min; Kd [4]: 9.98 nM; koff [4]: 0.0343 s⁻¹; kon [4]: 3.43e+06 M⁻¹ s⁻¹; t1/2 [4]: 0.3 min; binding response [11]: 0.26; binding response [19]: 0.34; binding response [17]: 0.24
